# In PMC3813916:
# Biological target: HLA-DR1 on transfected murine fibroblasts (DAP.3-DR1) (human)
# Assay: radioligand binding
substance,measurement,value
staphylococcal enterotoxin B (from UniProt P01552 28-266) (natural protein),Kd,141 nM
